Results on one substance are retold here after patent US20220227863A1.

This experiment addresses human ILT3 on cells (human) (UniProt Q8NHJ6). Briefly: flow cytometry on THP1 cells, enumeration of the ILT3 antigen density with clone ZM4.1; unit not given. (In general: In flow cytometry, cells or beads pass a laser one at a time.)

Chain of human ILT3 on cells (human) (Q8NHJ6 22-448 D223G/Q414R): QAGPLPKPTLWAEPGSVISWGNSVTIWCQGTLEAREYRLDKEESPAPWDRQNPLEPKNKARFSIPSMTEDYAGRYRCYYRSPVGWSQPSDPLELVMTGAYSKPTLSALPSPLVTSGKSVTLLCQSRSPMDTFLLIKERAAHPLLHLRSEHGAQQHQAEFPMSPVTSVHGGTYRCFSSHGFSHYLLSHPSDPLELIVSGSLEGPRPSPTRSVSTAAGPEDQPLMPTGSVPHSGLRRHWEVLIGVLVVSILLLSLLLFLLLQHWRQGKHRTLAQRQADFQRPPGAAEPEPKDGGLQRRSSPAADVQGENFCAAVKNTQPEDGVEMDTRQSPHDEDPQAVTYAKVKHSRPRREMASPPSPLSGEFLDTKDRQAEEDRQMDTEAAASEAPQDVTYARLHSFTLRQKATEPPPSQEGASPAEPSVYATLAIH

Take “mouse anti-ILT3 monoclonal antibody, clone ZM4.1”: the Ag density came out at 147000.
